Test system: cytochrome c
Assay: Tandem mass spectrometry of cytochrome c acetylation in transfected SH-SY5Y cells
Type: cell-based, mouse
Conditions: hSIRT3 cotransfected with cytochrome c in SH-SY5Y cells; FIG. 3
Description: SH-SY5Y cells were cultured in Dulbecco's Modified Eagle's Medium (DMEM) supplemented with 10% Fetal Calf Serum (FCS). SH-SY5Y cells were transfected with Lipofectamine 2000 (Invitrogen, Carlsbad, Calif.). Granule neuron cultures were prepared from cerebella of postnatal day 5 mouse pups. Neurons were placed on polyornithine-coated 96-well plates and grown in Basal Medium Eagle (BME) (Sigma, St. Louis, Mo.) supplemented with 10% calf serum (Hyclone Laboratories, Logan, Utah), 25 mM KCl, 2 mM glutamine, penicillin, and streptomycin. One day after cultures were prepared they were treated with 10 μM of the antimitotic agent cytosine-D-arabinofuranoside (Sigma, St. Louis, Mo.) to prevent the proliferation of non-neuronal cells.
A large-scale Flag-immunoprecipitation followed by elution with 3× Flag peptide was performed on cell extracts from 10×15 cm-plates of SH-SY5Y cells transfected with pcDNA-mouse cytochrome c-Flag+/−pcDNA-hSIRT3-HA. Purified proteins were separated by SDS-PAGE, and the band corresponding to cytochrome c was excised and analyzed by MS/MS.

B1: hSIRT3: human SIRT3 deacetylase expressed from transfected pcDNA-hSIRT3-HA vector (protein)
chain: MAFWGWRAAAALRLWGRVVERVEAGGGVGPFQACGCRLVLGGRDDVSAGLRGSHGARGEPLDPARPLQRPPRPEVPRAFRRQPRAAAPSFFFSSIKGGRRSISFSVGASSVVGSGGSSDKGKLSLQDVAELIRARACQRVVVMVGAGISTPSGIPDFRSPGSGLYSNLQQYDLPYPEAIFELPFFFHNPKPFFTLAKELYPGNYKPNVTHYFLRLLHDKGLLLRLYTQNIDGLERVSGIPASKLVEAHGTFASATCTVCQRPFPGEDIRADVMADRVPRCPVCTGVVKPDIVFFGEPLPQRFLLHVVDFPMADLLLILGTSLEVEPFASLTEAVRSSVPRLLINRDLVGPLAWHPRSRDVAQLGDVVHGVESLVELLGWTEEMRDLVQRETGKLDGPDK
modifications: left off: small tags and cut ends
notes: human SIRT3 deacetylase expressed from transfected pcDNA-hSIRT3-HA vector
  acetylation of residues K40 and K74 of cytochrome c: no longer detected

— US20150233949A1, “DETECTION AND MODULATION OF CYTOCHROME C ACETYLATION” (President and Fellows of Harvard College, priority 2008, published 2015)
